# Test results as given in patent US20180057596A1 (AstraZeneca / MedImmune, published 2018).
# Where a chain is given by its changes, count along the chain named.
# T1: human IL-4Rα on TF-1 cells (human, UniProt P24394 26-825)
# T1 sequence (looked up): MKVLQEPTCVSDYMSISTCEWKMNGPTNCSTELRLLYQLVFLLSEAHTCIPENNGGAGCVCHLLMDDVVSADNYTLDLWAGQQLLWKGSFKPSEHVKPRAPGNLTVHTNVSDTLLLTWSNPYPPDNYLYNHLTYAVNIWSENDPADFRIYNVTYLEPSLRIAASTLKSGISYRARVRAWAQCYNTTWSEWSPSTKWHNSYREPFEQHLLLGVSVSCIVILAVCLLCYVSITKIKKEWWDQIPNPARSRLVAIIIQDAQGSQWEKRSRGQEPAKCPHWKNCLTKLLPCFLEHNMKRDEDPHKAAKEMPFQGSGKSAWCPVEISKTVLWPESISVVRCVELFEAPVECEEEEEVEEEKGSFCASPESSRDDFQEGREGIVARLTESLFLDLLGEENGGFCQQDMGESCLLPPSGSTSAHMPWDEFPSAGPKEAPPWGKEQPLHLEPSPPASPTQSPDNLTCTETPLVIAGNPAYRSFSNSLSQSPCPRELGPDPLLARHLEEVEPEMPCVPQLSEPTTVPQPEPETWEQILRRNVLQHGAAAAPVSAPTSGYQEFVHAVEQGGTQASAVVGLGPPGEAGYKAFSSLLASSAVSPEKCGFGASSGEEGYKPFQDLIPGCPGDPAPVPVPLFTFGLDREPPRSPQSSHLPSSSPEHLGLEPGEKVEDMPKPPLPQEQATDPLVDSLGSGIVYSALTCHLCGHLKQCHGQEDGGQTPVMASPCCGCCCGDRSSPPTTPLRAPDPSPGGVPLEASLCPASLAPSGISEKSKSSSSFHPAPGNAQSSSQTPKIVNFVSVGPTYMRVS
# T2: human IL4Rα/Fc (R and D Systems 604-4R) (human, UniProt P24394 26-231, limits assumed, biotin labelled in the assay of Example 5)
# T2 construct: bought protein; also called IL-4Rα/Fc (R&D systems Cat. No. 604-4R-050); not shown: Fc part of the bought fusion
# T2 sequence (looked up): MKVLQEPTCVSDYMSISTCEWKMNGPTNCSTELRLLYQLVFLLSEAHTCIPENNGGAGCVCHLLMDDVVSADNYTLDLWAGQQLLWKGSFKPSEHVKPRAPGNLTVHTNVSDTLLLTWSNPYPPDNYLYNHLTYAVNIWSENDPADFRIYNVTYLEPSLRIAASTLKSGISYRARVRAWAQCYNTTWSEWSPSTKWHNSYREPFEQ
# B1: Antibody 8 IgG (antibody, V domains shown)
# VH: QVQLVQSGAEVKKPGASVKVSCKASGYAFTSYYMHWARQAPGQGLEWMGIINPSGGSTSYAQKFQGRVTMTRDTSTSTVYMELSSLRSEDTAVYYCARGKWWWQYWGKGTLVTVSS
# VL: QSVLTQPPSVSAAPGQKVTISCSGGSSNIGNSYVSWYQQLPGTAPKLLIYDNNKRPSGIPDRFSGSKSGTSATLAITGLQTGDEADYYCGTWDTSTTYHPIFGTGTKLTVL
# B2: Antibody 31 IgG (antibody, V domains shown)
# VH: B1 VH with W101Y, W103M, Q104Y, Y105D
# VL: B1 VL with N28S, D93A, T96P, T97V, Y98W, H99E, P100W, I101P
# B3: Antibody 42 IgG (antibody, V domains shown)
# VH: B1 VH with M48V, E89G, W101Y, W103M, Q104Y, Y105D
# VL: B1 VL with S2A, Q39R, T43A, T97G, Y98W, H99E, P100W, I101P
# B4: Antibody 12 IgG (antibody, V domains shown)
# VH: B1 VH with W103F, Q104Y, Y105D
# VL: B1 VL with Y98M, H99Y, I101L
# B5: Antibody 11 IgG (antibody, V domains shown)
# VH: B1 VH with W103F, Q104Y, Y105D
# VL: B1 VL with T96P, T97S, Y98M, H99I, I101L
# B6: Antibody 4 IgG (antibody, V domains shown)
# VH: B1 VH with W103L, Q104Y, Y105N
# VL: B1 VL with T96S, T97P, Y98P, H99Q
# B7: Antibody 16 IgG (antibody, V domains shown)
# VH: B1 VH with W103L, Q104Y, Y105N
# VL: B1 VL
# B8: Antibody 10 IgG (antibody, V domains shown)
# VH: B1 VH with W103L, Q104Y, Y105D
# VL: B1 VL with T97V, Y98L, H99T
# B9: Antibody 21 IgG (antibody, V domains shown)
# VH: B1 VH with T58A, W101Y, W103M, Q104Y, Y105D
# VL: B1 VL with D86V, Y88F, T97V, Y98W, H99E, P100W, I101P
# B10: Antibody 7 IgG (antibody, V domains shown)
# VH: B1 VH
# VL: B1 VL with T96S, T97P, Y98P, H99Q
# B11: Antibody 25 IgG (antibody, V domains shown)
# VH: B1 VH with S54R, T58A, T69S, W101Y, W103M, Q104Y, Y105D
# VL: B1 VL with S71T, D93V, T97V, Y98W, H99E, P100W, I101P
# B12: Antibody 19 IgG (antibody, V domains shown)
# VH: B1 VH with Y105H
# VL: B1 VL
# B13: Antibody 15 IgG (antibody, V domains shown)
# VH: B1 VH with W103L, Q104Y, Y105N
# VL: B1 VL with T97H, Y98R, I101L
# B14: Antibody 14 IgG (antibody, V domains shown)
# VH: B1 VH with W103L, Q104Y, Y105N
# VL: B1 VL with T96P, T97P, Y98T, H99K, I101L
# B15: Antibody 24 IgG (antibody, V domains shown)
# VH: B1 VH with S54R, W101Y, W103M, Q104Y, Y105D
# VL: B1 VL with Y88F, T97V, Y98W, H99E, P100W, I101P
# B16: Antibody 13 IgG (antibody, V domains shown)
# VH: B1 VH with W103L, Q104Y, Y105D
# VL: B1 VL with Y98L, H99Q, I101L
# B17: Antibody 37GL scFv (scFv, V domains shown)
# VH: B1 VH with A37V, S54R, W101Y, W103M, Q104Y, Y105D
# VL: B1 VL with S26G, N28S, A75G, T96P, T97V, Y98W, H99E, P100W, I101P
# notes: tested as purified scFv; also called NCIMB 41600
# B18: Antibody 40 scFv (scFv, V domains shown)
# VH: B1 VH with W101Y, W103M, Q104Y, Y105D
# VL: B1 VL with T94S, T97V, Y98W, H99E, P100W, I101P
# notes: tested as purified scFv
# B19: Antibody 42 scFv (scFv, V domains shown)
# VH: B1 VH with M48V, E89G, W101Y, W103M, Q104Y, Y105D
# VL: B1 VL with S2A, Q39R, T43A, T97G, Y98W, H99E, P100W, I101P
# notes: tested as purified scFv
# B20: Antibody 41 scFv (scFv, V domains shown)
# VH: B1 VH with K12R, S88P, W101Y, W103M, Q104Y, Y105D, S116G
# VL: B1 VL with S27T, Q39R, S57P, T97V, Y98W, H99E, P100W, I101P
# notes: tested as purified scFv
# B21: Antibody 38 scFv (scFv, V domains shown)
# VH: B1 VH with T58A, W101Y, W103M, Q104Y, Y105D
# VL: B1 VL with Y88F, T97V, Y98W, H99E, P100W, I101P
# notes: tested as purified scFv
# Biological target: T1, human IL-4Rα on TF-1 cells
# Experiment: cell-based or functional assay
Binder,"IC50 (pM), IL-4 induced TF-1 cell proliferation","IC50 (pM), IL-13 induced TF-1 cell proliferation"
B1,7.9 pM,22.4 pM
B2,20.2 pM,44.2 pM
B3,20.2 pM,42.7 pM
B4,18.2 pM,40.7 pM
B5,18.8 pM,32.7 pM
B6,20.9 pM,58.1 pM
B7,6.2 pM,19.5 pM
B8,10.1 pM,25.4 pM
B9,19.7 pM,34.7 pM
B10,12.3 pM,42.7 pM
B11,9.8 pM,23.2 pM
B12,7.6 pM,22.4 pM
B13,2.8 pM,17.8 pM
B14,3.8 pM,27.2 pM
B15,12.6 pM,30.2 pM
B16,15.7 pM,24.6 pM

# Biological target: T2, human IL4Rα/Fc (R and D Systems 604-4R)
# Experiment: HTRF receptor-ligand assay, purified scFv against biotinylated human IL4
row,Binder,Ki
1,B17,61 pM
2,B18,31 pM
3,B19,27 pM
4,B20,53 pM
5,B21,66 pM

# Biological target: T3, cynomolgus IL4Rα/Fc HIS6 (HEK expressed) (cynomolgus monkey)
# T3 construct: also called Cyno IL4R; cynomolgus IL-4Rα HIS Fc (in house HEK-EBNA derived); not shown: HIS6 tag
# T3 sequence (chain, as listed by the source): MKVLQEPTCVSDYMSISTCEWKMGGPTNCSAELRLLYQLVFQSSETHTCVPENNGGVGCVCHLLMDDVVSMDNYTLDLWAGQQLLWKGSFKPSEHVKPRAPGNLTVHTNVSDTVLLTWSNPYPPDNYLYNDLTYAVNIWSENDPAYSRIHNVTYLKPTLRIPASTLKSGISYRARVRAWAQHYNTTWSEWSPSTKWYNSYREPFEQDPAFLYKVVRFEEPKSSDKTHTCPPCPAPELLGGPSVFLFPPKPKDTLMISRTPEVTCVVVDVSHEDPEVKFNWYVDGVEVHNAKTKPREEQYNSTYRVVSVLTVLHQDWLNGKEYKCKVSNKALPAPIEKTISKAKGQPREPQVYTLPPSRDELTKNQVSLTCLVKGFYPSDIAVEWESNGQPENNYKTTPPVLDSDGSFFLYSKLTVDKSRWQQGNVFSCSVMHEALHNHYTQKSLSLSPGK
# Experiment: HTRF receptor-ligand assay, purified scFv against biotinylated cynomolgus IL4
row,Binder,Ki
1,B17,700 pM
2,B18,6500 pM
3,B19,2500 pM
4,B20,2700 pM
5,B21,2700 pM
